The values below come from article PMC10427004, “Restoration of energy homeostasis under oxidative stress: Duo synergistic AMPK pathways regulating arginine kinases” (PLOS Genetics, 2023).

In series [1] the test system is Nc1ncnc2c1ncn2[C@@H]1O[C@H](COP(=O)(O)OP(=O)(O)O)[C@@H](O)[C@H]1O. In words: hexokinase / glucose-6-phosphate dehydrogenase coupled assay, A340, Lineweaver-Burk. The note with it: 5 mM phospho-L-arginine, 20 mM MgCl2, pH 7.5, 30 °C. The class given is biochemical, Tribolium castaneum.
In series [2] the test system is Nc1ncnc2c1ncn2[C@@H]1O[C@H](COP(=O)(O)OP(=O)(O)OP(=O)(O)O)[C@@H](O)[C@H]1O. In words: pyruvate kinase / lactate dehydrogenase coupled assay, A340, Lineweaver-Burk. The note with it: 5 mM L-arginine, 20 mM MgCl2, pH 7.5, 30 °C. It counts as biochemical, Tribolium castaneum.

As for “6×His-TcAK1 (Tribolium castaneum; S129D)”, the Michaelis-Menten constant (Km) was determined as 19.4 mM in series [1] and 4.5 mM in series [2].
The corresponding values for “6×His-TcAK1 (Tribolium castaneum; T247D)” are 10.6 mM and 13.0 mM.
